Test in all cases: BLI
(In general: Biolayer interferometry detects binding as a change in optical thickness at a sensor tip.)

Test [1] has as its target the same heavy chain paired with four different light chains.
Test [2] deals with four VH/VL combinations (the same germline light chain paired with three different heavy chains).
The next test deals with PGT135 Fab (human).
Another test deals with CR9114 Fab (human).
Test [3] deals with a panel of eight affinity-matured monoclonal antibodies against the same HIV-1 gp120 antigen but with different epitopes.

The values that follow come from PMC3987992.

B1: recombinant Protein M TD, residues 74-468 (domain or fragment)
chain: SLSLNDGSYQSEIDLSGGANFREKFRNFANELSEAITNSPKGLDRPVPKTEISGLIKTGDNFITPSFKAGYYDHVASDGSLLSYYQSTEYFNNRVLMPILQTTNGTLMANNRGYDDVFRQVPSFSGWSNTKATTVSTSNNLTYDKWTYFAAKGSPLYDSYPNHFFEDVKTLAIDAKDISALKTTIDSEKPTYLIIRGLSGNGSQLNELQLPESVKKVSLYGDYTGVNVAKQIFANVVELEFYSTSKANSFGFNPLVLGSKTNVIYDLFASKPFTHIDLTQVTLQNSDNSAIDANKLKQAVGDIYNYRRFERQFQGYFAGGYIDKYLVKNVNTNKDSDDDLVYRSLKELNLHLEEAYREGDNTYYRVNENYYPGASIYENERASRDSEFQNEILKR
Broadly, the Kd is a measure of binding affinity in units of concentration. Consider B1, for which the Kd is 1.8 to 2.3 nM in test [1]; 2.1 to 4.8 nM in test [2]; 3.7 nM with PGT135 Fab (human); 1.9 nM in the test with CR9114 Fab (human); 0.7 to 3.8 nM in test [3].
